Molecular target: T1, Spindlin1_50–262 (Homo sapiens, UniProt Q9Y657)
T1 construct: The Spindlin1_50–262 samples were dialyzed against the buffer; GST (N, cleaved yes); made in house; host or cells: Escherichia coli BL21 (DE3)
Assay: Thermal shift assay (TSA), Spindlin1_50–262 mixed with histone H3 peptides
Assay type: binding
Conditions: the row's label is the comparator peptide
Experimental: Recombinant proteins were overexpressed in Escherichia coli BL21 (DE3) strain. […] After cell lysis and centrifugation, the supernatant was loaded onto a GST affinity column and washed with lysis buffer. Then the bound proteins were subjected to on-column cleavage by PreScission Protease overnight. […] Purified peak fractions were concentrated to 25 mg/ml in 150 mM NaCl, 20 mM Tris, pH 8.0, aliquoted, and stored at −80°C for future use. The TSA was performed with a CFX96 real-time PCR instrument (Bio-Rad). […] All solutions were prepared in 25 µl of the same buffer (20 mM Hepes Na, pH 7.5, 150 mM NaCl) and incubated at 4°C for 1 h. During TSA assays, samples were heated from 25°C to 90°C at a rate of 0.5°C per minute. Protein denaturation progress was monitored by increased fluorescence signal of Sypro Orange, which captures the exposure of the protein hydrophobic core during thermal unfolding. Changes in the fluorescence signal were recorded and analyzed by the software CFX-Manager (Bio-Rad). When 50% of the protein is denatured, the folding and unfolding states of the protein are in dynamic equilibrium, and the corresponding temperature is the protein's melting temperature.

T1 sequence (Q9Y657 50-262): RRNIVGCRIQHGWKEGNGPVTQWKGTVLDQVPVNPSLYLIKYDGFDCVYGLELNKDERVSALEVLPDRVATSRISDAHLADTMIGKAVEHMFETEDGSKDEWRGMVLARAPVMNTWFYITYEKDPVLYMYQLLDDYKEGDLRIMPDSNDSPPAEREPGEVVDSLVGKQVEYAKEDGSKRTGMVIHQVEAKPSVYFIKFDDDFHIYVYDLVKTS

Row | Substance | amount by which the Tm with H3_1–20 “K4me3-K9me3” ([…]) is greater than the Tm with this peptide [°C]
1 | H3_1–20 K9me3: synthetic histone H3 residues 1–20 peptide with K9me3 | 12.0
2 | unmodified H3_1–20: unmodified synthetic histone H3 residues 1–20 peptide | 15.0
